{
  "source": "patent US7605227B2",
  "about": "“Melanoma antigen peptide analogues” (MannKind Corporation, priority 2005, dated 2009)",
  "key": {"HLA-A*0201": {"molecular_target": "HLA-A*0201 (Homo sapiens, UniProt P04439, D140Y/D185E/D98H/E176V/E277Q/G131W/G231S/I119V/I121R/I166T/I218V/L300P/L318F/N151K/N90K/P208A/P217A/Q86G/Q94H/R138H/R169H/T345S)", "experiment": "iTopia off-rate assay (T1/2)", "type": "binding", "conditions": "PRAME425-433 and analogs", "procedure": "Avidin-coated microtiter plates containing class I monomer loaded with a so-called placeholder peptide were used to evaluate peptide binding, affinity and off-rate. […] Assay buffers, anti-MHC-FITC mAb and beta2-microglobulin and control peptides were also supplied with the kits.\nThe plates were then incubated on the allele-specific monomer plates at 37° C. The plates were measured at multiple time points (0, 0.5, 1, 1.5, 2, 4, 6 and 8 hrs) for relative fluorescence intensity. The time required for 50% of the peptide to dissociate from the MHC monomer is defined as the T1/2 value (hrs).\nThe binding and offrate (T1/2) was determined for six native epitopes and their analogs which were designed to enhance the immune response."}, "[1]": {"tested_on": "native epitope coated cells", "experiment": "pCTLR2 prime, PRAME peptide boost, in vivo cytotoxicity (CFSE)", "design": "species or system HHD transgenic mice"}},
  "data": [
    {"substance": "S425F: PRAME425-433 analog with Phe for Ser at P1 (FLLQHLIGL) [Peptide S425F]", "values": [
      {"measurement": "half time of dissociation", "setting": "HLA-A*0201", "result": 17.7, "unit": "h"},
      {"measurement": "in vivo cytotoxicity against native epitope, in words", "setting": "[1]", "result": "capable of expanding the immunity against the native epitope"}
    ]}
  ]
}
